We go through two molecules from paper PMC3458822, “Dimerization of DOCK2 Is Essential for DOCK2-Mediated Rac Activation and Lymphocyte Migration” (PLoS ONE, 2012).

Data set [1] deals with murine DOCK2 DHR-2 domain, wild type (murine). The data set can be described thus: SEC; Superdex 200 10/300 GL, 20 mM Tris-HCl pH 8.0, 250 mM NaCl, 5 mM 2-mercaptoethanol, 1 ml/minute, 20°C; size estimated against protein standards.
Data set [2] deals with the molecule itself. The data set can be described thus: crystal structure; human DOCK2 DHR-2 in complex with Rac1, PDB 3B13.

Consider “murine DOCK2 DHR-2 domain, wild type (domain or fragment)”, for which the stoichiometry N in data set [1] was 2.

B1: human DOCK2 DHR-2 domain (domain or fragment)
chain: SKDNRMSCTVNLLNFYKDNNREEMYIRYLYKLRDLHLDCDNYTEAAYTLLLHTWLLKWSDEQCASQVMQTGQQHPQTHRQLKETLYETIIGYFDKGKMWEEAISLCKELAEQYEMEIFDYELLSQNLIQQAKFYESIMKILRPKPDYFAVGYYGQGFPSFLRNKVFIYRGKEYERREDFQMQLMTQFPNAEKMNTTSAPGDDVKNAPGQYIQCFTVQPVLDEHPRFKNKPVPDQIINFYKSNYVQRFHYSRPVRRGTVDPENEFASMWIERTSFVTAYKLPGILRWFEVVHMSQTTISPLENAIETMSTANEKILMMINQYQSDETLPINPLSMLLNGIVDPAVMGGFAKYEKAFFTEEYVRDHPEDQDKLTHLKDLIAWQIPFLGAGIKIHEKRVSDNLRPFHDRMEECFKNLKMKVEKEYGVREM
notes: DOCK2, human, DHR-2 domain (lobes A, B and C) as crystallised with Rac1; Dimerises through lobe A in the crystal
On to B1, for which the “stoichiometry N” value in data set [2] worked out at 2.

Usually stoichiometry N stands for a count of units in the complex or per binding partner.
